Source: PMC4176348, “Structure analysis of free and bound states of an RNA aptamer against ribosomal protein S8 from Bacillus anthracis”

Tests used:
[1] = molecular target: T1, ribosomal protein S8 (B. anthracis) (Bacillus anthracis, UniProt Q81VR6 1-132); test: fluorescence anisotropy; 10 mM Mg acetate; settings: protein: recombinant; tags: N-terminal 6xHis (pET28b NheI-XhoI); label: 5'-fluorescein
[2] = molecular target: ribosomal protein S8 (E. coli) (Escherichia coli, UniProt P0A7W7 1-130); test: fluorescence anisotropy; 10 mM Mg acetate; settings: protein: recombinant, tags: N-terminal 6xHis (pET28b NheI-XhoI), label: 5'-fluorescein, hairpin
[3] = molecular target: ribosomal protein S8 (B. anthracis) (Bacillus anthracis, UniProt Q81VR6 1-132); test: fluorescence anisotropy; 10 mM Mg acetate; settings: protein: recombinant; tags: N-terminal 6xHis (pET28b NheI-XhoI); label: 5'-fluorescein; hairpin, asymmetric internal loop
[4] = molecular target: T1, ribosomal protein S8 (B. anthracis); test: 1:1 complex; settings: protein: recombinant; tags: N-terminal 6xHis (pET28b NheI-XhoI)

## CGCUGGCGGGUCAGUGAUCACUUCGGUGAUAUCAGACCCGGCAGCG (structured_RNA) [S8 RNA aptamer, fluorescein hairpin]
[1]
  Kd: 110 ± 30 nM
[2]; symmetric internal loop
  Kd: 19 ± 4 nM

## CGCUGGCGGGAUUAAGUCGACUUCGGUCGAAACUGGUCCCGGCAGCG (structured_RNA) [helix 21 16S rRNA S8 site, fluorescein hairpin]
[2]; asymmetric internal loop
  Kd: 28 ± 7 nM
[3]
  Kd: 180 ± 60 nM

## GGGAUGCUCAGUGAUCCUUCGGGAUAUCAGGGCAUCCC (structured_RNA) [RNA-2 aptamer (crystal)]
[4]
  binding result: binds
